Laboratory results taken from patent publication US20050158362A1, “Polymeric, fiber matrix delivery systems for bioactive compounds” (priority 2000, published 2005).

Assay: In vitro release of FITC-BSA from the fiber matrix into an infinite sink of 37° C. phosphate buffered saline
Format: physicochemical
Conditions: polylactic glycolic acid fiber matrix
Text: To construct the bioactive compound-loaded matrices, various concentrations of finely ground FITC-BSA were suspended in biodegradable polymer polylactic glycolic acid in 50:50 dimethyl formamide:tetrahydrofuran. Suspensions contained in a glass syringe with a capillary tip were electrospun into approximately 500 nm diameter fibers via an electrostatic based self-assembly process in which a high voltage electric field was generated between the oppositely charged polymer and a metallic collection screen. At a critical voltage the charge overcomes the surface tension of the deformed polymer drop at the needle tip, producing an ultrafine jet. The similarly charged fibers are splayed and during their passage to the screen, the solvent quickly evaporates so that dry fibers accumulate randomly on the screen forming a mesh matrix.
In vitro release of the FITC-BSA into an infinite sink of 37° C. phosphate buffered saline was also measured. This sink mimics in vivo conditions.
A 25% (w/v) solution of polylactic glycolic acid was prepared in a 50:50 mixture of dimethylformamide and tetrahydrofuran. […]
In vitro release of the FITC-BSA into an infinite sink of 37° C. phosphate buffered saline was measured. […] The amount of protein released was measured in the form of fluorescence of the FITC-BSA on a spectrophotofluorometer at an excitation wavelength of 495 nm and an emission wavelength of 513 nm.

For “FITC-BSA: fluorescently labeled bovine serum albumin dispersed between electrospun polylactic glycolic acid fibers of the matrix”, the “in vitro release profile of FITC-BSA” value was “release in the first 24 hours after initiation was dominant” and the “duration of observed in vitro release of FITC-BSA” value (fluorescence readout) was “over 120 hours”.
